Reference: article PMC7798916 (National Science Review, 2020)

B1: HB27 (humanized monoclonal antibody, IgG) (antibody, V domains shown)
VH: VKLVESGGGLVKPGGSLRLSCAASGFTFTNYGMSWVRQAPGKRLEWVAEISSGGSYTYYPDTVTGRFTISRDNAKNTLYLQMNSLRAEDTAVYYCARFRYGGGGTVDYWGQGTLVTVSS
VL: IVLTQSPTLSLSPGERATLSCRASESVDNYGISFMNWFQQKPGQAPRLLIYAASNQGSGIPSRFSGSGSGTDFSLTISSLEPEDFAVYFCQQSKEVPRIFGQGTKVEIL
notes: also called HB27 IgG; source: CHO cell line
B2: HB27 Fab fragment (Fab, V domains shown)
VH: B1 VH
VL: B1 VL

Tests used:
Details in all cases: both partners purified
[1] = molecular target: T1, SARS-CoV-2 RBD (recombinant receptor binding domain of the S glycoprotein) (SARS-CoV-2, UniProt P0DTC2); test: BLI
[2] = molecular target: T1, SARS-CoV-2 RBD (recombinant receptor …); test: ELISA
[3] = molecular target: T1, SARS-CoV-2 RBD (recombinant receptor …); test: cell-based immunofluorescent blocking assay

| Binder | Kd [1] [nM] | EC50 [2] [nM] | EC50 [3] [nM] |
| --- | --- | --- | --- |
| B1 | 0.07 | 0.5 | 5 to 50 |
| B2 | 0.27 |  |  |
